Assay results published in patent publication US20120172306A1, “Use of HASF as a Protective Agent Against Ischemic Tissue Damage” (Duke University, priority 2009, published 2012).

Experiments:
adult rat cardiomyocytes [1] = experiment: Caspase-Glo 9 and 3/7 assays of H2O2 induced apoptosis; format: cell-based; conditions: 10 nM for 30 min, 100 μM H2O2, 5 h
Protocol: FIGS. 2B and 2C are bar graphs showing relative caspase activity. Adult rat cardiomyocytes were freshly isolated and treated ±10 nM of HASF for 30 min, and then challenged with 100 μM of H2O2 for various time points. H2O2 induced apoptosis in cardiomyocytes was evidenced by the dynamic increase in the activities of the initiator Caspase 9 and effector Caspase […] at 5 h, 7 h and 9 h respectively. Y axis represent the relative amount of luminescence indicating the relative amount of active Caspase activities. ** P<0.01 and *** P<0.001. Data are presented as means±standard deviation of triplicates.
FIG. 3C is a bar graph showing fold-change in caspase activity. Serum-starved adult rat cardiomyocytes were treated with 3 μM PKC inhibitors or vehicle DMSO for 30 minutes, then 100 nM HASF recombinant protein was added for 30 minutes followed by treatment with 200 μM H2O2 for 3 hours. Apoptosis was determined by detection of Caspase-9 activity using a homogeneous luminescent assay. All samples were measured in triplicates. *P<0.05 vs. non-HASF treated cells.
FIG. 4C is a bar graph showing relative caspase activity in adult cardiomyocytes. Apoptosis as determined by detection of Caspase-9 activity on adult rat cardiomyocytes pre-treated with 178 μM PKC translocation inhibitor peptide for 10 minutes and then with 100 nM of HASF for 30 minutes. Thereafter, cells were challenged with 200 μM H2O2 for 3 hours. All samples were measured in triplicates. *P <0.05 vs. non-HASF treated cells and the experiment was repeated multiple times.
Adult rat ventricular cardiomyocytes were isolated from 6 weeks old female Sprague-Dawley rat (Harlan World Headquarters, Indianapolis, Ill., USA) hearts by enzymatic digestion and were seeded in (6-well) plates or Delta T culture dishes (Bioptechs, Inc., Pa.) pre-coated with 1 μg/cm2 of laminin (Sigma) at 5×10^4/well and cultured overnight in serum-free M199 medium (Sigma), supplemented with 2 mM of L-carnitine, 5 mM of creatine, 5 mM of taurine, 0.2% of albumin, 100 U/ml of penicillin and 100 μg/ml of streptomycin. […]

adult rat cardiomyocytes [2] = experiment: DNA fragmentation and apoptosis-related protein western blotting; format: cell-based
Protocol: FIGS. 7A-C are a series of photographs showing the effects of HASF in cytochrome c, Bcl2, Bax and DNA degradation. In FIG. 7A, Adult rat cardiomyocytes were treated with +10 nM of HASF for 30 min, and then challenged with 100 μM of H2O2 for 6 h. Mitochondrial fraction or cytosolic fraction or total cell lysate were extracted and separated in 15% SDS-PAGE and transferred to nitrocellulose membrane and probed with mouse anti-Cytochrome C monoclonal antibody. Lane 1-2, —H2O2 control; lane 3-4, +H2O2 control; lane 5-8, four individual samples of +HASF recombinant protein and then +H2O2. In FIG. 7B, Western blot of mitochondrial fractions with Bcl2 and Bax antibodies respectively. Lane 1, —H2O2control; lane 2, +H2O2control; lane 3-6, four individual samples of +HASF and then +H2O2. In FIG. 7C, adult rat cardiomyocytes were treated +10 nM of HASF for 30 min, and then challenged with 100 μM of H2O2 for overnight (˜15 h). Genomic DNA was extracted and separated on 1% agarose gel. H2O2 induced apoptosis in cardiomyocytes was companied by typical DNA fragmentation (laddering) at late-stage apoptosis. Pre-incubation of cardiomyocytes with 10 nM of this HASF recombinant protein inhibited the DNA laddering to a noticeable extends. Lane 1, DNA marker; lane 2, —H2O2control; lane 3-4, +H2O2; lane 5-6, +HASF recombinant protein and then +H2O2.
Adult rat ventricular cardiomyocytes were isolated from 6 weeks old female Sprague-Dawley rat (Harlan World Headquarters, Indianapolis, Ill., USA) hearts by enzymatic digestion and were seeded in (6-well) plates or Delta T culture dishes (Bioptechs, Inc., Pa.) pre-coated with 1 μg/cm2 of laminin (Sigma) at 5×10^4/well and cultured overnight in serum-free M199 medium (Sigma), supplemented with 2 mM of L-carnitine, 5 mM of creatine, 5 mM of taurine, 0.2% of albumin, 100 U/ml of penicillin and 100 μg/ml of streptomycin. Cells were briefly treated without or with PKC inhibitor (with vehicle saponin), then recombinant protein HASF (10 or 100 nM) was added into cells for 30 min, with PBS used as vehicle controls. The cells were challenged with H2O2 for various time points. For the Caspase assays, cardiomyocytes were scraped off plates in lysis buffer and were analyzed by a luminescent plate reader with Caspase-Glo 3/7 and or Caspase-Glo 9 kits (Promega); and for DNA fragmentation, genomic DNA from cardiomyocytes was extracted and separated on 1% agarose gel electrophoreses, with Apoptotic DNA Ladder Extraction Kit (BioVision), according to manufacturers' instructions. […]

[3] = system: rat myocardial infarction, peri-infarct region; experiment: In vivo ischemia/reperfusion injury, TUNEL staining; conditions: 1 μg intramyocardial, 30 min ischemia/24 h reperfusion
Protocol: FIG. 5B is a series of photographs and a bar graph showing TUNEL staining in control or HASF injected animals from groups described above to detect in vivo apoptosis of cardiomyocytes. Serial cyrosections of 5 μm thick were made immediately below the ligation area, 10 sections for each heart were analyzed, with N=8 rats per group. Sections were counterstained with hematoxylin. Total number of dark-brown color stained apoptotic nuclei were counted and added up blindly in 10 randomly taken fields within the peri-infarct region in each group.
Female Sprague-Dawley rats were used for all in vivo experiments. A midsternal thoracotomy was performed to expose the anterior surface of the heart after anesthesia. The proximal left […] coronary artery (LAD) was identified and a 6.0 suture (Ethicon) was placed around the artery and surrounding myocardium. […]
For TUNEL staining (DeadEnd Colometric TUNEL System, Promega) after 30 min ischemia/24 h reperfusion, serial cyrosections of 5 μm thick were made immediately below the ligation area, 10 sections for each heart were analyzed, with 8 rats in each group. […] Total number of dark-brown color stained apoptotic nuclei were counted and added up blindly in 10 randomly taken fields within the peri-infarct region in each group.

B1: HASF: Hypoxia regulated Akt MSC Factor, secreted protein encoded by C3orf58; recombinant human protein without N-signal sequence, SEQ ID NO:1 or 2 (protein, UniProt Q8NDZ4 36-430, looked up)
Divergent protein kinase …: LASWQRNELTDRRFLQLNKCPACFGTSWCRRFLNGQVVFEAWGRLRLLDFLNVKNVYFAQYGEPREGGRRRVVLKRLGSQRELAQLDQSICKRATGRPRCDLLQAMPRTEFARLNGDVRLLTPEAVEGWSDLVHCPSQRLLDRLVRRYAETKDSGSFLLRNLKDSERMQLLLTLAFNPEPLVLQSFPSDEGWPFAKYLGACGRMVAVNYVGEELWSYFNAPWEKRVDLAWQLMEIAEQLTNNDFEFALYLLDVSFDNFAVGPRDGKVIIVDAENVLVADKRLIRQNKPENWDVWYESKFDDCDKEACLSFSKEILCARATVDHNYYAVCQNLLSRHATWRGTSGGLLHDPPSEIAKDGRLEALLDECANPKKRYGRFQAAKELREYLAQLSNNVR
modifications: 6xHis tag
reduction of Caspase 3/7 (adult rat cardiomyocytes [1]): ~45% | reduction of Caspase 9 (adult rat cardiomyocytes [1]): ~38% | mitochondrial anti-apoptotic Bcl-2 protein level (adult rat cardiomyocytes [2]; 10 nM for 30 min, 100 μM H2O2): increased levels | cytochrome C release into the cytosol (adult rat cardiomyocytes [2]; 10 nM for 30 min, 100 μM H2O2 6 h): prevention of cytochrome C release into the cytosol | DNA fragmentation (adult rat cardiomyocytes [2]; 10 nM for 30 min, 100 μM H2O2 overnight (~15 h)): reduction of DNA fragmentation | translocation of Bax protein from cytosol into mitochondria (adult rat cardiomyocytes [2]; H2O2 induced apoptosis): did not prevent | reduction of the number of TUNEL positive nuclei [3]: ~69%
